Reference: a protein production outcome set (Wang et al. 2014)

Experiment: label from the status in PepcDB records

Sequence | protein production
MVVNTLGRYFARRFVIASLGVFFGLFVLLVFVDYVDLLRRAGGLAVSAFYVAQASFCRVPQLLERLLPFCILIGGMTCYLALSRSLELVVARAAGLSAWEFISPALWSAIAIGIFATTVFNPLSAHMQERAKQMEAEMFGENTGGLQDANGFWMNQVSPDGQAIINAARSQQQGAVLTGITVFRFEPDFQFKDRIEAREAVLEPGHWLLKNVRRYTMDGAPVDQDTLELPTSLTLAQVRNSFATPESVSFWQLPTYIKSSENSGFATAGYRLQYHKLLAKPFLLAAMVMLAASVSLRFFRFGGVQKMVLSGVAAGFLLYILSKVTEDLSKAELMHPLAAAWLPVCVGGLAGFLALLYQEDG | failed
MVVSTDQAHSLGDVLGIAVPPTGQGDPVRVLAYDPEAGGGFLDALALDTLALLEGRWLHVVETLDRRFPGSELSSIAPEELCALPGIQEVLGLHAVGELAAARRWDRIVVDCASTADALRMLTLPATFGLYVERAWPRHRRLSIGADDGRSAVLAELLERIRASVERLSTLLTDGALVSAHLVLTPERVVAAEAVRTLGSLALMGVRVEELLVNQLLVQDENYEYRSLPDHPAFHWYAERIGEQRAVLDDLDATIGDVALVLVPHLAGEPIGPKALGGLLDSARRRQGSAPPGPLQPIVDLESGSGLASIYRLRLALPQLDPGTLTLGRADDDLIVSAGGMRRRVRLASVLRRCTVLDAHLRGGELTVRFRPNPEVWPT | failed
MVVVMNPEQIYGVSNIKSHIPVMLDIEESNYDAWRELFLTHCLSFDVMGHIDGTLLPTNANDVNWQKRDGIVKLSLYGTLTPKQFQGSFVTSSTSRDIWLRIKNQFRNNKDARALRLDSELRTKDIGDMRVADYYRKMKKLADSLRNVDVPVTDRNLVMYVLNGLNPKFDNIINVIKHRQPFPSFDDAATMLQEEEDRLKRAIKPNPTHVDHSSSSTVLACSEAPPVTNFQRSGGNQMGYRGRGRGNNIFRGRGGRFSYYNMPTFNSWNRPPFYQNSYQMWNHPWGYPPYVNTNGGNGLGLLGPRPAY | failed
MVWLWCVLHLLVAALGTWGLRRYALHRRLLDHPGERRSHVVATPRGGGMAIVAAILLGCVAACALWPTSRLTVCWFAAGLVAVAGVGWWDDHRPLSARLRFSIHLAASVALGALVWHGTGSVWDGVLTAAASVMLINVWNFMDGINGLASTQAALAALGFSLVAPVGWSWAGLAVAAACLGFVPFNFPRARIFMGDGGSGALGYVLAALLALNVAGGQVSWWISWLPLTAFLVDAGFTLLARMLSGQRWWEPHAQHVYQRLARRLETHVPVTGVYFAFSLIAVCLYLLIRHDPFWLQVSGALVWGMGATAIWHFLRDGLRNS | failed
MVYELVYELVYAKIYTNKRIPIREDPCMARTTRPLTHTEVQKAKATDKDLTLHDGDGLFLLVKTTGKKIWRFRYQVPGTSKRTMISLGAYPALSLADAREVRSEKLAILVKGIDPQARAGEEAEKLQIAQESIFVNVARKWFELKQSHVSADHAKDIWRSIEKDILPSIENVPIQELKARTLIQVLEPIKARGALETVRRLVQRINEIMIYAVNVGLIEANPASGIGNAFERPKKQHMPIIRPEELPKLMRTISMSNLSIPTRCLLEWQLLTLIRPAEASATAWSEIDIENKQWCIPAERMKAKRDHIVPLSEQALELLEIMRPISGNRQYVFPSRNDPRKPMNSQTANAALKRIGYSGKLVAHGLRSIASTAMNEAGFNADVIEAALAHSDKNEVRRAYNRSTYLTQRVELLGWWGEFVNRTQVI | failed
MVYLLPFFTVMIWGGNSIVNKMAASTIEPSAMSFYRWFVAMVLLTPFCLPAVIKQRHVIRPYLTKLAFLALLGMVLNQSLGYYAGLTTTASNMALITSLVPLISVFLSVPLLGKSVSMLSIVGGVISLGGLAFMLGHGDVTYFLHQDMTQGDSLMLLAALVYAAYCVLLKRWKMPFNSLTLVYMQGFFSVIMLTPLWLSSEQLLPSQEALPLIAYAGIAASIFAPLMWVKAIDLIGADSSAMFMNLMPVVSVALASTLLGEEIHVYHIIGGLMVISGVILSQIKVRKKQDLVVSESLTTTTR | failed
MVYVAVLANIAGNFPALTAALEKIEELKEEGYEIEKYYILGNIVGLFPYPREVIEAIKNLAKTSNVKVIRGKYDQLIAMSDPHAGDPKYIDKLEIPDHLKATLKYTWEKLGHEGREYLRDLPIYLVDKIGKNEIFGVYGSPVNPFDGEILPDQPTSYYEAIMRPVKEYEMLLVASPRYPLDAMTMYGRVVCPGSIGFPPAREHKATFALVDAETLKVKFIEVEYDKKIIEDRIKLEKLPEEVIKILYHGGKA | not failed
MVYVFQGIGGYIILFLLMIGEGIGLPLPSEVIMPLVGYYSYLGSISLYLGVIVGTLGSLVGSIIAYIIGYKLGLAFLKRYGKYILIDEGKIEALHNWFLRYGNMAVFGFRFIPGLRALISYPAGIGQMKILKFLGFTFLGHTIWDIVLALIGYQLANQINFVITQAEKLGNYLFILVIVIIVIYILWRIFWKRK | failed
MWDSENIEELSLVIGIGLDKPDDENLELTQQILVPKIISAKEGSSSDPTQLSITKGKTVHQMMRTSALKHKPTFSQHLRLILLSKSVIADQIGMDAIINQFVRDNGTRRSSYVFITNGRTKDIFNMNDEGEPASNVIYDLTENNKVTIRTMEPVTLGEISEHLTSDDSFLIPHVGKENGKLAINGASIIKNKLWHRDLTPIEVQNISLFSGTVEGGVIDLKRDGHLFSYEVYSSNRKIKTAYKDGKFKFTVTRNIEGRLSEDWNPNEDSFKDSYIKSIEKTVEKRVHETVTSFITEKLQKEIKADVTGLGNEVRIHYPQKWKKISRKWDDDYFSNAEIDYRVNVIVRDFGTKGANKLEHHHHHH | not failed
MWEAIKDRETGRIRSNSFANRFKSRRILSLQLSNRKDFVSPHRGSVNSLQVDLTEGRYLLSGAADGSAAVFDVQRATDYEASGLIAKHKCIFTVDKQHENGHKYAISSAIWYPIDTGLFITGSFDHYLKVWDTNTAQAVVDFKMPGKVYRTAMSSMAMSHTLIAAGTEDVQVRLCDIASGAFSHTLSGHRDGVMSVEWSTSSEWVLYTGGCDGAIRFWDIRRAGCFRVLDQSQTQLGFRPPILKRTAVGSKLSSVAKSSLGGQNRLKTLQSKQTGSQSVKGSSSAKASVEKSRQKRIHPGMLSTLDRATAHYGAVTGLKATNDGMYLLSAGSDSRIRLWDIESGRNTLVNFETGRIQTNKGIQLDTSDDPALVFVPCMKTVKVAFGMWSGRTTLMLRGHYESVNTCCFNSNDQELYTSGSDRQILVWSPGGTVEDEMVQDEVAEDKDNWSD | failed
